We go through three molecules from US20020086312A1 (IMMUNEX, published 2002).

Assay [1] concerns the target T1, murine RANK, endogenous on RAW 264.7 cells (murine) (UniProt O35305).
T1 sequence: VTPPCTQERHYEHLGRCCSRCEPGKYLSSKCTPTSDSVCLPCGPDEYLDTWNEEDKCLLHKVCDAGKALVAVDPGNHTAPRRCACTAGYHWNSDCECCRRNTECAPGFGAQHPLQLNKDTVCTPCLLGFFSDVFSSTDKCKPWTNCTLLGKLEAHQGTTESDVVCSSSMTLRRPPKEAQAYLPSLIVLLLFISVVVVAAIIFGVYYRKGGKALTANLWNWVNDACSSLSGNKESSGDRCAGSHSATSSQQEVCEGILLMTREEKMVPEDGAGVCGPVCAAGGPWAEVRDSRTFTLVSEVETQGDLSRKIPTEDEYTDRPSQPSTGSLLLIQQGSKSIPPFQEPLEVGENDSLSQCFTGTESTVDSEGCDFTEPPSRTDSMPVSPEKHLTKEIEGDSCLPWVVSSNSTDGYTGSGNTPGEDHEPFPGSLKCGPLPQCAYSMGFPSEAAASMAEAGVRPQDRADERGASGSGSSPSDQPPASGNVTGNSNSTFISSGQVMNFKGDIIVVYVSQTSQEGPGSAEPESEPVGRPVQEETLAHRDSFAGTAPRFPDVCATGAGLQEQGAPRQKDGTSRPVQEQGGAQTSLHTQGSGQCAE
The assay can be described thus: cell-based or functional assay.

The target of assay [2] is T2, full-length human RANK (SEQ ID NO:2) (human, UniProt Q9Y6Q6 29-616).
T2 sequence: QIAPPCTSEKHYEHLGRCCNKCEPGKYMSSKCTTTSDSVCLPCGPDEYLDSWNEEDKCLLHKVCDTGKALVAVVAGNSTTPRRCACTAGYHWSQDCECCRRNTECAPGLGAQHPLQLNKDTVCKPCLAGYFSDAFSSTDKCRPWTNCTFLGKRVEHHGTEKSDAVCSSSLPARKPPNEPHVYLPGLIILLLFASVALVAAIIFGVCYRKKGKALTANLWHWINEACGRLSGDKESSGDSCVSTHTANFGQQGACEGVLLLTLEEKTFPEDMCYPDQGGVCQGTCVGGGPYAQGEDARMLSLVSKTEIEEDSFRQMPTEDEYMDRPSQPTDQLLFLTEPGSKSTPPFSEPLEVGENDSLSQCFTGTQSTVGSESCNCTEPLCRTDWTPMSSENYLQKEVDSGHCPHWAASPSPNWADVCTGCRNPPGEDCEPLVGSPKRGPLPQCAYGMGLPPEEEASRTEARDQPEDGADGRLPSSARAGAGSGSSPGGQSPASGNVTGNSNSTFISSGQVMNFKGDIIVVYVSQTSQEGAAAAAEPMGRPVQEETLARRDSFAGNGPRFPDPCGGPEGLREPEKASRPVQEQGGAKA
Briefly: cell-based or functional assay.

In assay [1], “leucine zipper form of murine RANK-L (from UniProt O35235 70-316) (ligand)” displayed an induction of the MMP-9/luciferase promoter in transfected RAW 264.7 cells, 1 ug/ml for 18 hours of 10 to 15 fold; a mouse MMP-9 mRNA in RAW 264.7 cells by quantitative RT-PCR, 200 ng/ml of more than 350 fold; a mouse TRAP mRNA in RAW 264.7 cells by quantitative RT-PCR, 200 ng/ml of more than 250 fold.
With “murine RANK-L (mRANK-L, 200 ng/ml in the differentiation medium) (from UniProt O35235 70-316) (ligand)”, in assay [2], the 32P incorporation into a c-src-specific substrate by extracts of RANK -/- spleen cells expressing wild-type RANK, after differentiation in CSF-1 and mRANK-L stood at 15 fold; the F-actin ring formation (fluorescent phalloidin staining) in RANK -/- cells expressing wild-type RANK, cultured 5 days with CSF-1 and mRANK-L (% of the cells) was more than 50.

B1: human full-length RANK-L (SEQ ID NO:6) (ligand)
chain: MRRASRDYTKYLRGSEEMGGGPGAPHEGPLHAPPPPAPHQPPAASRSMFVALLGLGLGQVVCSVALFFYFRAQMDPNRISEDGTHCIYRILRLHENADFQDTTLESQDTKLIPDSCRRIKQAFQGAVQKELQHIVGSQHIRAEKAMVDGSWLDLAKRSKLEAQPFAHLTINATDIPSGSHKVSLSSWYHDRGWAKISNMTFSNGKLIVNQDGFYYLYANICFRHHETSGDLATEYLQLMVYVTKTSIKIPSSHTLMKGGSTKYWSGNSEFHFYSINVGGFFKLRSGEEISIEVSNPSLLDPDQDATYFGAFKVRDID
In the case of B1, in assay [2], the “luciferase reporter expression from the human TRAP promoter, co-transfected 293/EBNA cells” value was approximately 1.5 fold; the “luciferase reporter expression from the mouse TRAP promoter, co-transfected 293/EBNA cells” value was approximately 4 fold; the “luciferase reporter expression from the murine MMP-9 promoter, co-transfected 293/EBNA cells” value was 2.5 fold.
